Blank lines part the entries; values can stand above or below the binder they belong to.
What was measured:
[1] = target: T1, recombinant human IL-1α (human, UniProt P01583 113-271); experiment: cell-based or functional assay
T1 sequence (looked up): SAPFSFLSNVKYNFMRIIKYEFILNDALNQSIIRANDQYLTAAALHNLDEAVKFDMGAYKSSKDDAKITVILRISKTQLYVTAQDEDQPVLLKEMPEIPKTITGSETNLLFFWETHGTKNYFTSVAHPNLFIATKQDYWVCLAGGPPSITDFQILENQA

[2] = target: T1, recombinant human IL-1α; experiment: SPR (Biacore)
[3] = target: T2, recombinant human IL-1β (human, UniProt P01584 117-269); experiment: SPR (Biacore)
T2 construct: also called rhIL-1β; hIL-1β

[4] = target: T2, recombinant human IL-1β; experiment: cell-based or functional assay
[5] = target: T1, recombinant human IL-1α; experiment: cell-based or functional assay; remark: listed apart in the source
[6] = target: mouse IL-1β (mouse, UniProt P10749 118-269); experiment: cell-based or functional assay
[7] = target: T3, human IL-18 (human, UniProt Q14116 37-193); experiment: SPR (Biacore)
T3 construct: also called hIL-18

[8] = target: T4, human IL-12 (human, UniProt P29459 23-219; P29460 23-328); experiment: SPR (Biacore)
T4 construct: also called hIL-12
T4 sequence (looked up) 1: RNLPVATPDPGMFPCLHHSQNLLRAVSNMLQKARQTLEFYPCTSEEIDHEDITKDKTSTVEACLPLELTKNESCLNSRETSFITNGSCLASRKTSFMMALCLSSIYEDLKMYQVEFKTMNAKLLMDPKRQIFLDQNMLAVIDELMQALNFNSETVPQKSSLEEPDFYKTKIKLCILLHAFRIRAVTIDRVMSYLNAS
T4 sequence (looked up) 2: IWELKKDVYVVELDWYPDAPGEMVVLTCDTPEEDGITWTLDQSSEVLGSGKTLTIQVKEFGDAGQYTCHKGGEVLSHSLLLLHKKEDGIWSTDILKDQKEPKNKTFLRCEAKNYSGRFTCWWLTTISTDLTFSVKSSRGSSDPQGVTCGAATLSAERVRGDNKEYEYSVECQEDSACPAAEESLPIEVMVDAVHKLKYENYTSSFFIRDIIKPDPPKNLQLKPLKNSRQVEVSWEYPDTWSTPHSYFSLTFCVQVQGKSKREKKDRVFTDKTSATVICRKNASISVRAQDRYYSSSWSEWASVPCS

[9] = target: T3, human IL-18; experiment: cell-based or functional assay
[10] = target: T4, human IL-12; experiment: cell-based or functional assay
[11] = target: T5, mouse IL-1α (mouse, UniProt P01582 115-270); experiment: cell-based or functional assay
T5 sequence (looked up): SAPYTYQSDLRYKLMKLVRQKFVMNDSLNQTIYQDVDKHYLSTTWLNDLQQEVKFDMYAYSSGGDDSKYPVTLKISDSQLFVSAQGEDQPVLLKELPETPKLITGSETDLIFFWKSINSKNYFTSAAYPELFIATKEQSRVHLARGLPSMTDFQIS

[12] = target: T2, recombinant human IL-1β; experiment: cell-based or functional assay; remark: listed apart in the source

Sequence of mouse IL-1β (P10749 118-269 limits assumed): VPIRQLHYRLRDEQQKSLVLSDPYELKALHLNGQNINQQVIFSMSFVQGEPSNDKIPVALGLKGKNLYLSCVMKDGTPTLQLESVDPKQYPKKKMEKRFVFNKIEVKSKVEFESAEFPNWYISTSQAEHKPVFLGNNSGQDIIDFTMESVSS

- Potency (IC50) M, MRC-5 bioassay [1]: 750 pM
- Kd [2]: 837 pM
- Kd [3]: 63700 pM
B1: hIL-1α/bDVD3a-Ig (bispecific antibody, human IgG1, kappa)
heavy: not shown
light: DIVMTQSQRFMSTSVGDRVSVTCKASQNVGTNIAWYQQKPGQSPRALIYSASYRYSGVPDRFTGSGSGTDFTLTISNVQSVDLAEYFCQQYTRYPLTFGGGTKLEIKRTVAAPETTVTQSPASLSMAIGEKVTIRCITSTDIDVDMNWYQQKPGEPPKLLISQGNTLRPGVPSRFSSSGSGTDFVFIIENMLSEDVADYYCLQSDNLPLTFGAGTKLELKRTVAAPSVFIFPPSDEQLKSGTASVVCLLNNFYPREAKVQWKVDNALQSGNSQESVTEQDSKDSTYSLSSTLTLSKADYEKHKVYACEVTHQGLSSPVTKSFNRGEC
notes: 18F4.2C8 - short linker - 1B12.4H4 - C (a-b-C); also called hIL-1a/b DVD3a-Ig

- IC50 (M), MRC-5 bioassay (IL-8 production) [4]: 3.2e-10 M
B2: murine monoclonal antibody 6B12.4F6 (anti-hIL-1β) (antibody, V domains shown)
VH: EVQLQQSGPELVKTGTSVKISCKASGYSFTGYYMHWVRQSHGKSLEWIGYISCYNGFTSYNPKFKGKATFTVDTSSSTAYIQFSRLTSEDSAVYYCARSDYYGTNDYWGQGTTLTVSS
VL: QIVLTQSPAIMSASPGEKVTITCSASSSVSYMHWFQQKPGASPKLWIYSTSNLASGVPARFSGSGSGTSYSLTVSRMEAEDAATYYCQQRSTYPYTFGGGTKLEIKR

- IC50 (M), MRC-5 bioassay (IL-8 production) [5]: 6.7e-10 M
B3: murine monoclonal antibody 3D12.E3 (anti-hIL-1α) (antibody, V domains shown)
VH: QIQLVQSGPELKKPGETVKISCKASGYTFRNYGMNWVKQAPGKDLKRMAWINTYTGESTYADDFKGRFAFSLETSASTAYLQINNLKNEDTATYFCARGIYYYGSSYAMDYWGQGTSVTVSS
VL: NIQMTQTTSSLSASLGDRVTISCRASQDISNCLNWYQQKPDGTVKLLIYYTSRLHSGVPSRFSGSGSGTDYSLTISNLEQEDIATYFCQQGKTLPYAFGGGTKLEINR

- IC50 (M), in vitro potency (assay not described) [6]: 3.7e-10 M
B4: mouse anti-mouse IL-1β mAb clone 10G11 (antibody, V domains shown)
VH: EVQLQQSGPELVKPGTSVKMSCKTSGYTFTSYVMHWVKQKPGQGLEWIGYIIPYNDNTKYNEKFKGKATLTSDKSSSTAYMELSSLTSEDSAVYYCARRNEYYGSSFFDYWGQGTTLTVSS
VL: DIQMTQSPASLSASVGETVTITCRGSGILHNYLVWYQQKQGKSPQLLVYSAKILADGVPSRFSGSGSGTQYSLKINSLQPEDFGSYYCQHFWSTPFTFGSGTKLEIKR

- IC50 (M), MRC-5 bioassay (IL-8 production) [4]: 5.3e-10 M
B5: murine monoclonal antibody 1B12.4H4 (anti-hIL-1β) (antibody, V domains shown)
VH: QVHLKESGPGLVAPSQSLSITCTVSGFSLTDYGVSWIRQPPGKGLEWLGLIWGGGDTYYNSPLKSRLSIRKDNSKSQVFLKMNSLQTDDTAVYYCAKQRTLWGYDLYGMDYWGQGTSVTVSS
VL: ETTVTQSPASLSMAIGEKVTIRCITSTDIDVDMNWYQQKPGEPPKLLISQGNTLRPGVPSRFSSSGSGTDFVFIIENMLSEDVADYYCLQSDNLPLTFGAGTKLELKR

- IC50 (M), MRC-5 bioassay (IL-8 production) [5]: 8.9e-11 M
B6: murine monoclonal antibody 18F4.2C8 (anti-hIL-1α) (antibody, V domains shown)
VH: EVQLQQSGAELVKPGASVKLSCTASGLNIKDTYMHWLKQRPEQGLEWIGRIDPANGNAKYDPRFLGKATITADTSSNTAYLQLSSLTSEDTAVYYCARGDGNFHFDYWGQGTTLTVSS
VL: DIVMTQSQRFMSTSVGDRVSVTCKASQNVGTNIAWYQQKPGQSPRALIYSASYRYSGVPDRFTGSGSGTDFTLTISNVQSVDLAEYFCQQYTRYPLTFGGGTKLEIKR

- Kd [7]: 191 pM
- Kd [8]: 1820 pM
- Potency (IC50, M), KG-1 bioassay (IFN-γ production) [9]: 4e-11 M
- Potency (IC50, M), IL-12-induced IFN-γ production by PHA blast cells [10]: 3.66e-10 M
B7: DVD1812SL (anti-IL12/IL18 DVD-Ig, 18-12-C, short linker) (bispecific antibody, human IgG1, kappa)
heavy: not shown
light: EIVMTQSPATLSVSPGERATLSCRASESISSNLAWYQQKPGQAPRLFIYTASTRATDIPARFSGSGSGTEFTLTISSLQSEDFAVYYCQQYNNWPSITFGQGTRLEIKRTVAAPQSVLTQPPSVSGAPGQRVTISCSGSRSNIGSNTVKWYQQLPGTAPKLLIYYNDQRPSGVPDRFSGSKSGTSASLAITGLQAEDEADYYCQSYDRYTHPALLFGTGTKVTVLGTVAAPSVFIFPPSDEQLKSGTASVVCLLNNFYPREAKVQWKVDNALQSGNSQESVTEQDSKDSTYSLSSTLTLSKADYEKHKVYACEVTHQGLSSPVTKSFNRGEC
notes: also called DVD1812HC-SL / DVD1812LC-SL

- IC50 (M), MRC-5 bioassay (IL-8 production) [4]: 6e-10 M
B8: murine monoclonal antibody 13F5.G5 (anti-hIL-1β) (antibody, V domains shown)
VH: QVQLQQSGAELVRPGSSVKISCKASGYAFSSYWMNWVKQRPGQGLEWIGQIYPGDGDTNYNGKFKGKATLTADKSSSTSYMQLSGLTSEDSAMYFCVRFPTGNDYYAMDYWGQGTSVTVSS
VL: NIVLTQSPASLAVSLGQRATISCRASESVDSYGNSYMHWYQQKPGQPPKLLIYLASNLESGVPARFSGSGSRTDFTLTIDPVEADDAATYYCQQNNEDPFTFGSGTKLEIKR

- IC50 (M), in vitro potency (assay not described) [11]: 2e-10 M
B9: mouse anti-mouse IL-1α mAb clone 9H10 (antibody, V domains shown)
VH: QVILKESGPGILQPSQTLSLTCSFSGFSLSTYGTAVNWIRQPSGKGLEWLAQIGSDDRKLYNPFLKSRITLSEDTSNSQVFLKITSVDTEDSATYYCANGVMEYWGLGTSVTVSS
VL: SIVMTQTPKFLLVSAGDRVTITCKASQSVNHDVAWYQQMPGQSPKLLIYFASNRYTGVPDRFTGSGYGTDFTFTISTVQAEDLAVYFCQQDYSSPYTFGGGTKLEIKR

- Kd [7]: 162 pM
- Kd [8]: 113 pM
- Potency (IC50, M), KG-1 bioassay (IFN-γ production) [9]: 7.8e-11 M
- Potency (IC50, M), IL-12-induced IFN-γ production by PHA blast cells [10]: 1.18e-10 M
B10: DVD1812LL (anti-IL12/IL18 DVD-Ig, 18-12-C, long linker) (bispecific antibody, human IgG1, kappa)
heavy: not shown
light: EIVMTQSPATLSVSPGERATLSCRASESISSNLAWYQQKPGQAPRLFIYTASTRATDIPARFSGSGSGTEFTLTISSLQSEDFAVYYCQQYNNWPSITFGQGTRLEIKRTVAAPSVFIFPPQSVLTQPPSVSGAPGQRVTISCSGSRSNIGSNTVKWYQQLPGTAPKLLIYYNDQRPSGVPDRFSGSKSGTSASLAITGLQAEDEADYYCQSYDRYTHPALLFGTGTKVTVLGTVAAPSVFIFPPSDEQLKSGTASVVCLLNNFYPREAKVQWKVDNALQSGNSQESVTEQDSKDSTYSLSSTLTLSKADYEKHKVYACEVTHQGLSSPVTKSFNRGEC
notes: also called DVD1812HC-LL / DVD1812LC-LL

- Potency (IC50) M, MRC-5 bioassay [1]: 2300 pM
- Potency (IC50) M, MRC-5 bioassay [12]: 70000 pM
- Kd [2]: 1060 pM
- Kd [3]: 2090 pM
B11: hIL-1α/bDVD6a-Ig (bispecific antibody, human IgG1, kappa)
heavy: not shown
light: QIVLTQSPALMSASPGEKVTMTCSASSSVNYMYWYQQKPRSSPKPWIYLTSNLASGVPARFSGSGSGTSYSLTISSMEAEDAATYYCQQWNSNPYTFGGGTKLEMKRTVAAPSVFIFPPQIVLTQSPAIMSASPGEKVTITCSASSSVSYMHWFQQKPGASPKLWIYSTSNLASGVPARFSGSGSGTSYSLTVSRMEAEDAATYYCQQRSTYPYTFGGGTKLEIKRTVAAPSVFIFPPSDEQLKSGTASVVCLLNNFYPREAKVQWKVDNALQSGNSQESVTEQDSKDSTYSLSSTLTLSKADYEKHKVYACEVTHQGLSSPVTKSFNRGEC
notes: 6H3.1A4.3E11 - long linker - 6B12.4F6 - C (a-b-C); also called hIL-1a/b DVD6a-Ig

- IC50 (M), MRC-5 bioassay (IL-8 production) [5]: 2.4e-10 M
B12: murine monoclonal antibody 6H3.1A4.3E11 (anti-hIL-1α) (antibody, V domains shown)
VH: QVQLQQPGAELVRPGASVKLSCKASGYTFTTYWMNWVKQRPEQGLEWIGRIDPYDSETLYSQKFKDTAILTVDKSSSTAYMQLSSLTSEDSAVYYCARYGFDYWGQGTTLTVSS
VL: QIVLTQSPALMSASPGEKVTMTCSASSSVNYMYWYQQKPRSSPKPWIYLTSNLASGVPARFSGSGSGTSYSLTISSMEAEDAATYYCQQWNSNPYTFGGGTKLEMKR

- Potency (IC50) M, MRC-5 bioassay [1]: 1000 pM
- Potency (IC50) M, MRC-5 bioassay [12]: 750 pM
- Kd [2]: 820 pM
- Kd [3]: 697 pM
B13: hIL-1α/bDVD6b-Ig (bispecific antibody, human IgG1, kappa)
heavy: not shown
light: QIVLTQSPAIMSASPGEKVTITCSASSSVSYMHWFQQKPGASPKLWIYSTSNLASGVPARFSGSGSGTSYSLTVSRMEAEDAATYYCQQRSTYPYTFGGGTKLEIKRTVAAPSVFIFPPQIVLTQSPALMSASPGEKVTMTCSASSSVNYMYWYQQKPRSSPKPWIYLTSNLASGVPARFSGSGSGTSYSLTISSMEAEDAATYYCQQWNSNPYTFGGGTKLEMKRTVAAPSVFIFPPSDEQLKSGTASVVCLLNNFYPREAKVQWKVDNALQSGNSQESVTEQDSKDSTYSLSSTLTLSKADYEKHKVYACEVTHQGLSSPVTKSFNRGEC
notes: 6B12.4F6 - long linker - 6H3.1A4.3E11 - C (b-a-C); also called hIL-1a/b DVD6b-Ig

From patent publication US20140154256A1 (published 2014)
